Results: US20040049024A1, “Compositions and methods related to the minn1 tumor suppressor gene and protein” (priority 2003, published 2004)
Peptide text beside a SMILES is read from it. * marks the point of attachment. Cbz = O=C(OCc1ccccc1)*; CH2F = FC*

Key:
[1] = tested on: 293-T cells; test: Cell death after Minn1 or Fas transfection, with or without caspase inhibitor; format: cell-based, human; conditions: 30 μM, added immediately after transfection; DMSO carrier
Experimental: Fas is a well-characterized inducer of apoptosis (Nagata, Annu. Rev. Genet., 33:29-55 [1999]).
Apoptosis requires the activation of caspase proteases (Stennicke and Salvesen, Biochim. Biophys. Acta 1477:299-306 [2000]). In order to confirm that the cell death observed in the Minn1 and […] transfected cells was apoptotic cell death, the transfection experiments were repeated in the presence of the caspase inhibitor, z-VAD-fink (Calbiochem). The drug was added to the cells to a final concentration of 30 μM immediately after transfection and was maintained during subsequent medium changes. DMSO was used as the drug carrier, and was also included in transfections that contained no drug in order to normalize transfection conditions.

[2] = target: T1, HA-H-Ras(G12V) fusion protein (UniProt P01112 1-186); test: co-transfection in 293-T cells, anti-HA immunoprecipitation, anti-FLAG Western blot
T1 construct: Expressed in 293-T cells; precipitated with anti-HA beads; also called pCGNHA-H-Ras(G12V)
Experimental: (§1) After 48 hours, the cells were lysed, immunoprecipitated using anti-HA antibody-conjugated sepharose beads (BAbCO), washed and analyzed by Western immunoblotting using an anti-FLAG monoclonal antibody (M2 antibody, SIGMA) and an alkaline phosphatase conjugated secondary antibody with an ECL detection kit (Amersham).
(§2) After 48 hours, the cells were lysed in EDTA-free RIPA buffer (described in Clark et al., J. Biol. Chem., 272:20990-20993 [1997]), immunoprecipitated with anti-HA antibody-conjugated sepharose beads (BAbCO), washed and subjected to Western immunoblotting using an anti-FLAG monoclonal primary antibody (M2 antibody, Sigma) and an alkaline phosphatase conjugated secondary antibody with an ECL chemiluminescence kit (Amersham).

[3] = target: T2, HA-H-Ras(WT) fusion protein (UniProt P01112 1-186); test: as above
T2 construct: Expressed in 293-T cells; precipitated with anti-HA beads; also called wild-type HA-H-Ras
Experimental: as §1, §2

[4] = tested on: H-Ras; test: In vivo Ras/Minn1 binding assay (co-transfection/co-precipitation in 293-T cells); format: cell-based, human; conditions: HA-H-Ras(WT) versus HA-H-Ras(G12V), 48 hours after co-transfection
From the text: To confirm and complement the results observed in the in vitro binding assay, an in vivo binding assay was undertaken using recombinant FLAG-tagged Minn1 protein and hemagglutinin (HA)-tagged Ras proteins. These experiments used a standard co-transfection/co-precipitation protocol common in the art, using 293-T cells, a transformed human embryonal kidney cell line.
Expression vectors encoding two different forms of HA-tagged Ras protein were used in this assay, namely, a wild-type HA-H-Ras fusion protein and an HA-H-Ras containing a gain-of-function (G12V) mutation. This mutation is known to be oncogenic, and results in elevated Ras signalling activity (Clark and Der, in GTPases in Biology [eds. Dickey and Birmbauer], Springer-Verlag London Ltd., pp. 259-287 [1993]). […] Thus, this mutant form of Ras is considered to be locked in an active conformation.
The in vivo binding assay was conducted by co-transfecting mammalian expression vectors encoding HA-H-Ras(WT) or HA-H-Ras(G12V) with an expression vector encoding FLAG-Minn1 into 293-T cells. After 48 hours, the cells were lysed, immunoprecipitated using anti-HA antibody-conjugated sepharose beads (BAbCO), washed and analyzed by Western immunoblotting using an anti-FLAG monoclonal antibody (M2 antibody, SIGMA) and an alkaline phosphatase conjugated secondary antibody with an ECL detection kit (Amersham). […]

[5] = target: T3, H-Ras (Homo sapiens, UniProt P01112); test: In vitro Ras/Minn1 binding and co-precipitation assay
T3 construct: made in house; XL1-Blue Escherichia coli for the MBP fusions
From the text: The ability of Ras and Minn1 to interact in vitro was examined. These experiments used in vitro produced and purified maltose binding protein (MBP) fusion proteins containing the Minn1 Ras-Association (RA) domain or the Raf Ras-Binding-Domain (RBD), and purified Ras protein in a standard protein binding and co-precipitation assay.
Ras protein was produced by inducing an H-Ras bacterial expression construct in bacteria followed by differential denaturation and dialysis, as known in the art (See e.g., Campbell-Burk and Carpenter, Methods Enzymol., 255:3-13 [1995]). […] Purity and concentrations of the recombinant proteins were assessed by denaturing polyacrylamide gel electrophoresis (SDS-PAGE) followed by Coomassie Blue staining and comparison to known standards.
After this time, the binding reactions were centrifuged and washed. Following the washing steps, the binding reactions were loaded and resolved using PAGE, blotted to a polyvinylidene difluoride (PVDF) membrane, and analyzed by Western immunoblotting using an anti-H-Ras monoclonal primary antibody (Quality Biotech, #146). Detection was accomplished using an alkaline phosphatase conjugated secondary antibody and ECL chemiluminescence reagent (Amersham). […]
The proteins resolved in the PAGE were analyzed by Western immunoblotting using an anti-H-Ras monoclonal antibody (Viro Med). […]

COC(=O)C[C@H](NC(=O)[C@H](C)NC(=O)[C@@H](NC(=O)OCc1ccccc1)C(C)C)C(=O)CF [z-VAD-fmk] (Cbz-Val-Ala-Asp(OMe)-CH2F)
Effect on Fas-induced cell death [1]: severely reduced | Effect on Minn1-induced cell death [1]: severely reduced

B1: FLAG-tagged Minn1 protein (other, not shown: small tags and cut ends)
chain: MGEAEAPSFEMTWSSTTSSGYCSQEDSDSELEQYFTARTSLARRPRRDQDEPVEWETPDLFQAEIEQKIKEYNAQINSNLFMSLNKDGSYTGFIKVQLKLVRPVSVPSSKKPPSLQDARRGPGRGTSVRRRTSFYLPKDAVKHLHVLSRTRAREVIEALLRKFLVVDDPRKFALFERAERHGQVYLRKLLDDEQPLRLRLLAGPSDKALSFVLKENDSGEVNWDAFSMPELHNFLRILQREEEEHLRQILQKYSYCRQKIQEALHACPLG
notes: also called FLAG-Minn1
binding result [2]: binds | binding result [3]: binds

B2: FLAG-tagged Minn1: Minn1 protein with amino terminal FLAG epitope tag, expressed from pCDNAFLAG-Minn1 in 293-T cells (protein)
chain: MGEAEAPSFEMTWSSTTSSGYCSQEDSDSELEQYFTARTSLARRPRRDQDEPVEWETPDLFQAEIEQKIKEYNAQINSNLFMSLNKDGSYTGFIKVQLKLVRPVSVPSSKKPPSLQDARRGPGRGTSVRRRTSFYLPKDAVKHLHVLSRTRAREVIEALLRKFLVVDDPRKFALFERAERHGQVYLRKLLDDEQPLRLRLLAGPSDKALSFVLKENDSGEVNWDAFSMPELHNFLRILQREEEEHLRQILQKYSYCRQKIQEALHACPLG
modifications: left off: small tags and cut ends
Association with HA-tagged Ras proteins (anti-HA immunoprecipitation, anti-FLAG Western) [4]: preferentially associated with the activated HA-Ras(G12V) protein

B3: MBP-Minn1: maltose binding protein fusion protein containing the Minn1 Ras-Association (RA) domain, amino acid positions 59-270 (protein)
chain: DLFQAEIEQKIKEYNAQINSNLFMSLNKDGSYTGFIKVQLKLVRPVSVPSSKKPPSLQDARRGPGRGTSVRRRTSFYLPKDAVKHLHVLSRTRAREVIEALLRKFLVVDDPRKFALFERAERHGQVYLRKLLDDEQPLRLRLLAGPSDKALSFVLKENDSGEVNWDAFSMPELHNFLRILQREEEEHLRQILQKYSYCRQKIQEALHACPLG
modifications: left off: large carriers
GTP dependence of the interaction with Ras ([5]; GTP-loaded versus GDP-loaded H-Ras): GTP-dependent | Co-precipitation of Ras protein (physical interaction with Ras) ([5]; purified H-Ras preloaded with GTP or GDP, 4° C. for 2 hours, Western immunoblot with anti-H-Ras antibody): co-precipitated
